These results are taken from article PMC12102759 (2025).

The chains are these.
B1: SH3BP2 peptide 410-425 (SH3 domain-binding protein 2), 16-mer library wild type / TNKS ANK (TNKS 12 ANK repeats, residues 174-649) (parent complex)
chain 1: LPHLQRSPPDGQSFRS
chain 2: TGVPAVSGALRELLEACRNGDVSRVKRLVDAANVNAKDMAGRKSSPLHFAAGFGRKDVVEHLLQMGANVHARDDGGLIPLHNACSFGHAEVVSLLLCQGADPNARDNWNYTPLHEAAIKGKIDVCIVLLQHGADPNIRNTDGKSALDLADPSAKAVLTGEYKKDELLEAARSGNEEKLMALLTPLNVNCHASDGRKSTPLHLAAGYNRVRIVQLLLQHGADVHAKDKGGLVPLHNACSYGHYEVTELLLKHGACVNAMDLWQFTPLHEAASKNRVEVCSLLLSHGADPTLVNCHGKSAVDMAPTPELRERLTYEFKGHSLLQAAREADLAKVKKTLALEIINFKQPQSHETALHCAVASLHPKRKQVTELLLRKGANVNEKNKDFMTPLHVAAERAHNDVMEVLHKHGAKMNALDTLGQTALHRAALAGHLQTCRLLLSYGSDPSIISLQGFTAAQMGNEAVQQILSESTPIRTSD
B2: AXIN1 peptide 235-250 (Axin-1), 16-mer library wild type / PP2A B56 (PPP2R5A B56 domain, residues 1-486) (parent complex)
chain 1: SGYLPTLNEDEEWKAD
chain 2: not shown

In the first assay the parent is B1. The assay is described as follows: proteomic peptide phage display deep mutational scan (ProP-PD DMS): M13 P8 16-mer library selected against immobilised GST-tagged bait for four days (rounds), NGS of the eluted pools per day and pseudo-replica; bait immobilised on MaxiSorp plates (10 µg), library pre-cleared on GST, 2 h binding at 4 °C, five washes; one round per day, days 1-4; value from days 2 and 3.
Turning to chain 1 P2Q, the screen value is 0.000644 average fractional NGS count over selection days 2 and 3 (reads of this peptide / all reads for the bait, averaged over ….

As to chain 1 P2V, the screen value is 0.00125 average fractional NGS count over selection days 2 and 3 (reads of this peptide / all reads for the bait, averaged over ….

For the variant chain 1 P2N, the screen value is 0.000461 average fractional NGS count over selection days 2 and 3 (reads of this peptide / all reads for the bait, averaged over ….

For the variant chain 1 P2S, the screen value is 0.000402 average fractional NGS count over selection days 2 and 3 (reads of this peptide / all reads for the bait, averaged over ….

As to chain 1 P2I, the screen value was 0.000822 average fractional NGS count over selection days 2 and 3 (reads of this peptide / all reads for the bait, averaged over ….

For the variant chain 1 H3T, the screen value is 0.000309 average fractional NGS count over selection days 2 and 3 (reads of this peptide / all reads for the bait, averaged over ….

As for chain 1 H3P, the screen value is 0.000298 average fractional NGS count over selection days 2 and 3 (reads of this peptide / all reads for the bait, averaged over ….

With chain 1 H3E, the screen value was 0.000323 average fractional NGS count over selection days 2 and 3 (reads of this peptide / all reads for the bait, averaged over ….

Regarding chain 1 H3A, the screen value was 0.000153 average fractional NGS count over selection days 2 and 3 (reads of this peptide / all reads for the bait, averaged over ….

For chain 1 H3L, the screen value is 0.000556 average fractional NGS count over selection days 2 and 3 (reads of this peptide / all reads for the bait, averaged over ….

Take chain 1 P9G: the screen value was 0.000695 average fractional NGS count over selection days 2 and 3 (reads of this peptide / all reads for the bait, averaged over ….

chain 1 S7D: the screen value is 0.000477 average fractional NGS count over selection days 2 and 3 (reads of this peptide / all reads for the bait, averaged over ….

For chain 1 S7T, the screen value is 0.00126 average fractional NGS count over selection days 2 and 3 (reads of this peptide / all reads for the bait, averaged over ….

Take chain 1 S7K: the screen value was 0.00104 average fractional NGS count over selection days 2 and 3 (reads of this peptide / all reads for the bait, averaged over ….

For chain 1 S7E, the screen value was 0.00893 average fractional NGS count over selection days 2 and 3 (reads of this peptide / all reads for the bait, averaged over ….

chain 1 S7I: the screen value is 0.000719 average fractional NGS count over selection days 2 and 3 (reads of this peptide / all reads for the bait, averaged over ….

As to chain 1 Q12N, the screen value was 0.00115 average fractional NGS count over selection days 2 and 3 (reads of this peptide / all reads for the bait, averaged over ….

Regarding chain 1 Q12H, the screen value was 0.0118 average fractional NGS count over selection days 2 and 3 (reads of this peptide / all reads for the bait, averaged over ….

With chain 1 Q12L, the screen value is 0.00741 average fractional NGS count over selection days 2 and 3 (reads of this peptide / all reads for the bait, averaged over ….

For the variant chain 1 Q12K, the screen value is 0.000431 average fractional NGS count over selection days 2 and 3 (reads of this peptide / all reads for the bait, averaged over ….

For chain 1 P8A, the screen value was 0.00935 average fractional NGS count over selection days 2 and 3 (reads of this peptide / all reads for the bait, averaged over ….

Take chain 1 P8E: the screen value was 0.00169 average fractional NGS count over selection days 2 and 3 (reads of this peptide / all reads for the bait, averaged over ….

In the case of chain 1 P8I, the screen value is 0.00231 average fractional NGS count over selection days 2 and 3 (reads of this peptide / all reads for the bait, averaged over ….

For chain 1 L1Q, the screen value was 0.00289 average fractional NGS count over selection days 2 and 3 (reads of this peptide / all reads for the bait, averaged over ….

chain 1 L1T: the screen value is 0.0011 average fractional NGS count over selection days 2 and 3 (reads of this peptide / all reads for the bait, averaged over ….

On to chain 1 D10T, for which the screen value is 0.000156 average fractional NGS count over selection days 2 and 3 (reads of this peptide / all reads for the bait, averaged over ….

On to chain 1 F14W, for which the screen value is 0.00225 average fractional NGS count over selection days 2 and 3 (reads of this peptide / all reads for the bait, averaged over ….

Consider chain 1 F14Y, for which the screen value was 0.00865 average fractional NGS count over selection days 2 and 3 (reads of this peptide / all reads for the bait, averaged over ….

Consider chain 1 Q5K, for which the screen value was 0.0003 average fractional NGS count over selection days 2 and 3 (reads of this peptide / all reads for the bait, averaged over ….

With chain 1 Q5P, the screen value was 0.000217 average fractional NGS count over selection days 2 and 3 (reads of this peptide / all reads for the bait, averaged over ….

For chain 1 Q5D, the screen value is 0.00109 average fractional NGS count over selection days 2 and 3 (reads of this peptide / all reads for the bait, averaged over ….

Consider chain 1 S13Q, for which the screen value is 0.00224 average fractional NGS count over selection days 2 and 3 (reads of this peptide / all reads for the bait, averaged over ….

With chain 1 S13G, the screen value was 0.00038 average fractional NGS count over selection days 2 and 3 (reads of this peptide / all reads for the bait, averaged over ….

Regarding chain 1 S13M, the screen value was 0.00197 average fractional NGS count over selection days 2 and 3 (reads of this peptide / all reads for the bait, averaged over ….

As for chain 1 S13D, the screen value is 0.00033 average fractional NGS count over selection days 2 and 3 (reads of this peptide / all reads for the bait, averaged over ….

As to chain 1 S13L, the screen value was 0.00144 average fractional NGS count over selection days 2 and 3 (reads of this peptide / all reads for the bait, averaged over ….

For the variant chain 1 S13T, the screen value is 0.00243 average fractional NGS count over selection days 2 and 3 (reads of this peptide / all reads for the bait, averaged over ….

Variants of B2 are the subject of a further assay. The description is as above.
Turning to chain 1 G2K, the screen value was 0.000562 average fractional NGS count over selection days 2 and 3 (reads of this peptide / all reads for the bait, averaged over ….

In the case of chain 1 G2V, the screen value is 0.000268 average fractional NGS count over selection days 2 and 3 (reads of this peptide / all reads for the bait, averaged over ….

In the case of chain 1 G2M, the screen value is 0.0011 average fractional NGS count over selection days 2 and 3 (reads of this peptide / all reads for the bait, averaged over ….

Take chain 1 G2L: the screen value was 0.000458 average fractional NGS count over selection days 2 and 3 (reads of this peptide / all reads for the bait, averaged over ….

With chain 1 G2I, the screen value was 0.000957 average fractional NGS count over selection days 2 and 3 (reads of this peptide / all reads for the bait, averaged over ….

For chain 1 G2P, the screen value was 0.0013 average fractional NGS count over selection days 2 and 3 (reads of this peptide / all reads for the bait, averaged over ….

For chain 1 G2D, the screen value was 0.000338 average fractional NGS count over selection days 2 and 3 (reads of this peptide / all reads for the bait, averaged over ….

For chain 1 G2S, the screen value is 0.000675 average fractional NGS count over selection days 2 and 3 (reads of this peptide / all reads for the bait, averaged over ….

Consider chain 1 G2A, for which the screen value is 0.00077 average fractional NGS count over selection days 2 and 3 (reads of this peptide / all reads for the bait, averaged over ….

As to chain 1 G2H, the screen value is 0.000834 average fractional NGS count over selection days 2 and 3 (reads of this peptide / all reads for the bait, averaged over ….

For the variant chain 1 G2E, the screen value was 0.000393 average fractional NGS count over selection days 2 and 3 (reads of this peptide / all reads for the bait, averaged over ….

Take chain 1 G2T: the screen value is 0.00134 average fractional NGS count over selection days 2 and 3 (reads of this peptide / all reads for the bait, averaged over ….

Take chain 1 G2W: the screen value was 0.00074 average fractional NGS count over selection days 2 and 3 (reads of this peptide / all reads for the bait, averaged over ….

With chain 1 N8K, the screen value was 0.000298 average fractional NGS count over selection days 2 and 3 (reads of this peptide / all reads for the bait, averaged over ….

For the variant chain 1 N8P, the screen value is 0.000473 average fractional NGS count over selection days 2 and 3 (reads of this peptide / all reads for the bait, averaged over ….

For chain 1 N8F, the screen value was 0.000687 average fractional NGS count over selection days 2 and 3 (reads of this peptide / all reads for the bait, averaged over ….

For the variant chain 1 N8I, the screen value was 0.00188 average fractional NGS count over selection days 2 and 3 (reads of this peptide / all reads for the bait, averaged over ….

In the case of chain 1 N8A, the screen value was 0.000156 average fractional NGS count over selection days 2 and 3 (reads of this peptide / all reads for the bait, averaged over ….

Consider chain 1 N8Y, for which the screen value was 0.00143 average fractional NGS count over selection days 2 and 3 (reads of this peptide / all reads for the bait, averaged over ….

For chain 1 N8V, the screen value is 0.022 average fractional NGS count over selection days 2 and 3 (reads of this peptide / all reads for the bait, averaged over ….

For the variant chain 1 N8M, the screen value was 0.000721 average fractional NGS count over selection days 2 and 3 (reads of this peptide / all reads for the bait, averaged over ….

Turning to chain 1 N8S, the screen value was 0.000146 average fractional NGS count over selection days 2 and 3 (reads of this peptide / all reads for the bait, averaged over ….

In the case of chain 1 N8W, the screen value is 0.000126 average fractional NGS count over selection days 2 and 3 (reads of this peptide / all reads for the bait, averaged over ….

With chain 1 N8T, the screen value is 0.000511 average fractional NGS count over selection days 2 and 3 (reads of this peptide / all reads for the bait, averaged over ….

Consider chain 1 N8E, for which the screen value is 0.000839 average fractional NGS count over selection days 2 and 3 (reads of this peptide / all reads for the bait, averaged over ….

Consider chain 1 N8R, for which the screen value is 0.000829 average fractional NGS count over selection days 2 and 3 (reads of this peptide / all reads for the bait, averaged over ….

As to chain 1 N8Q, the screen value is 0.00306 average fractional NGS count over selection days 2 and 3 (reads of this peptide / all reads for the bait, averaged over ….

With chain 1 N8H, the screen value is 0.000177 average fractional NGS count over selection days 2 and 3 (reads of this peptide / all reads for the bait, averaged over ….

As for chain 1 Y3Q, the screen value was 0.000114 average fractional NGS count over selection days 2 and 3 (reads of this peptide / all reads for the bait, averaged over ….

As for chain 1 Y3V, the screen value was 0.00041 average fractional NGS count over selection days 2 and 3 (reads of this peptide / all reads for the bait, averaged over ….

As for chain 1 Y3A, the screen value is 0.00043 average fractional NGS count over selection days 2 and 3 (reads of this peptide / all reads for the bait, averaged over ….

Consider chain 1 Y3S, for which the screen value was 0.000173 average fractional NGS count over selection days 2 and 3 (reads of this peptide / all reads for the bait, averaged over ….

As for chain 1 Y3L, the screen value was 0.000544 average fractional NGS count over selection days 2 and 3 (reads of this peptide / all reads for the bait, averaged over ….

With chain 1 Y3F, the screen value was 0.000133 average fractional NGS count over selection days 2 and 3 (reads of this peptide / all reads for the bait, averaged over ….

For chain 1 D16N, the screen value was 0.000396 average fractional NGS count over selection days 2 and 3 (reads of this peptide / all reads for the bait, averaged over ….

With chain 1 D16E, the screen value is 0.000288 average fractional NGS count over selection days 2 and 3 (reads of this peptide / all reads for the bait, averaged over ….

chain 1 D16P: the screen value is 0.000234 average fractional NGS count over selection days 2 and 3 (reads of this peptide / all reads for the bait, averaged over ….

For chain 1 D16V, the screen value is 0.00077 average fractional NGS count over selection days 2 and 3 (reads of this peptide / all reads for the bait, averaged over ….
